Data as given in PMC4813479, “β-Subunit Binding Is Sufficient for Ligands to Open the Integrin αIIbβ3 Headpiece” (The Journal of Biological Chemistry, 2015).
Like-named read-outs stand apart in the source and are kept apart here. Non-standard residues stand in square brackets, D forms with d. No end group written: not given here. *: point of attachment. FITC = O=C1OC2(c3ccc(O)cc3Oc3cc(O)ccc32)c2ccc(NC(=S)*)cc21; Ahx = NCCCCCC(=O)O

Experiments:
[1] = molecular target: recombinant αIIbβ3 headpiece; test: fluorescence polarisation; competition: unlabeled peptide against 3 nM FITC-dodecapeptide on 300 nM αIIbβ3 headpiece; I50 converted to KD; 20 mM HEPES, pH 7.5, 150 mM NaCl, 2 mM MnCl2, 0.1 mM CaCl2
[2] = molecular target: recombinant αIIbβ3 headpiece; test: as above; remark: listed apart in the source
[3] = molecular target: full-length human αIIbβ3 on CHO K1 cells (human) (UniProt P08514)
[4] = molecular target: recombinant αIIbβ3 headpiece; test: fluorescence polarisation; saturation: FITC-dodecapeptide probe at 3 nM, increasing concentration of αIIbβ3 headpiece; one-site specific binding fit; background with 10 μM tirofiban subtracted; 20 mM HEPES, pH 7.5, 150 mM NaCl, 2 mM MnCl2, 0.1 mM CaCl2
[5] = molecular target: six-domain αIIbβ3 headpiece fragment (chymotrypsin-treated, re-purified)

## AGDV-NH2 [AGDV-NH2 (amidated AGDV)]
[1]
  fold reduction in affinity against AGDV: 5.6 fold
[2]
  fold reduction in affinity against AGDV: 7 fold

## AGDV [AGDV tetrapeptide]
[1]
  Kd: 9.03 µM

## QAGDV [QAGDV pentapeptide]
[1]
  Kd: 7.85 µM

## AGD[dV] [AGD(v) (D-valine in place of L-valine)]
[1]
  fold decrease in binding affinity against AGDV: 24 fold

## HHLGGAKQAGDV [fibrinogen γC dodecapeptide]
[3]
  EC50 of LIBS1 epitope exposure on CHO cells expressing αIIbβ3 (flow cytometry, 1 mM Mg2+ and 1 mM Ca2+): 580 µM
[1]
  Kd: 1.27 µM

## Ac-AGDV [N-acetylated AGDV]
[1]
  Kd: 1 µM

## {FITC-Ahx}-HHLGGAKQAGDV [FITC-aminohexanoyl-…]
[4]
  Kd: 0.64 µM

## RGDF [RGDF peptide]
[5]
  Stokes radius of the αIIbβ3 headpiece by size-exclusion chromatography (Superdex 200) with 1 mM peptide (4.78 nm in buffer): 5.23 nm

## AGDV-OMe [AGDV-OCH3 (O-methylated AGDV)]
[1]
  fold reduction in affinity against AGDV: 7.5 fold
